# Results taken from patent US11160869B2 (priority 2019, dated 2021).
# B1: IL-10 delivery construct: recombinant homodimeric fusion protein: N-terminal methionine, cholix386 domain, polyGlySer spacer, recombinant human IL-10 (protein)
# chain: MVEEALNIFDECRSPCSLTPEPGKPIQSKLSIPSDVVLDEGVLYYSMTINDEQNDIKDEDKGESIITIGEFATVRATRHYVNQDAPFGVIHLDITTENGTKTYSYNRKEGEFAINWLVPIGEDSPASIKISVDELDQQRNIIEVPKLYSIDLDNQTLEQWKTQGNVSFSVTRPEHNIAISWPSVSYKAAQKEGSRHKRWAHWHTGLALCWLVPMDAIYNYITQQNCTLGDNWFGGSYETVAGTPKVITVKQGIEQKPVEQRIHFSKGNAMSALAAHRVCGVPLETLARSRKPRDLTDDLSCAYQAQNIVSLFVATRILFSHLDSVFTLNLDEQEPEVAERLSDLRRINENNPGMVTQVLTVARQIYNDYVTHHPGLTPEQTSAGAQAGGGGSGGGGSGGGGSPGQGTQSENSCTHFPGNLPNMLRDLRDAFSRVKTFFQMKDQLDNLLLKESLLEDFKGYLGCQALSEMIQFYLEEVMPQAENQDPDIKAHVNSLGENLKTLRLRLRRCHRFLPCENKSKAVEQVKNAFNKLQEKGIYKAMSEFDIFINYIEAYMTMKIRN
# modifications: homodimer
# Experiments:
# [1] = Pan-colonic administration via sigmoidoscopy in NHP: plasma PK and PD; assay type: in vivo, cynomolgus monkeys
# Protocol: IL-10 delivery construct solution (at concentrations of 0.1, 0.3 and 1.0 mg/mL for the low, mid and high-dose groups respectively) was administered via the rectal route using sigmoidoscopy and a syringe connected to a spray nozzle with a 360° spray pattern. Serial biopsy samples were collected by sigmoidoscopy (pre-dose, 0.25, 0.5, 0.75, 8 and 24-28 hours post dose). Serial plasma samples from 0 min pre-dose to between 24-28 hours post-dose were collected for analysis for the IL-10 delivery construct.
# [2] = Intraluminal injection in T-cell transfer model: rhIL-10 ELISA in intestinal tissue and serum; assay type: in vivo, BALB/c and SCID mice
# Protocol: This study was conducted to examine the potential for the carrier protein to transport rhIL-10 from the intestinal lumen into the submucosal region in inflamed intestinal tissue. The T lymphocyte (T cell) transfer model was used as it is a well-established model of induced chronic colitis in mice and presents many of the essential immunological hallmarks observed in IBD patients. Nine BALB/c mice and twelve SCID mice, including nine with the colitis-like model of inflammation, were dosed with 20 μl of test article via intraluminal injection into the distal ileum and the proximal, middle and distal colon. […] In each group, two mice were terminated 10 minutes after intraluminal injections, and one was terminated 40 minutes after intraluminal injections. Intestinal tissue and serum were collected. Collected tissue was fixed, embedded, sectioned and H&E stained for histological assessment of inflammatory status. ELISA analysis to measure rhIL 10 was performed on lysates prepared from intestinal tissue and serum (FIGS. 106A-106D).
# ulcerative colitis = experiment: Phase 1b multiple ascending dose in patients with active ulcerative colitis; assay type: in vivo, human; settings: for placebo-adjusted mean reduction of FCP: baseline FCP >150 μg/g
# Protocol: Data was gathered on the safety, tolerability, pharmacokinetics, pharmacodynamics, and initial clinical response following a multiple ascending dose (MAD) of the IL-10 delivery construct in adult patients with active UC over 14 days of treatment. […] A coating with a weight ratio of 50:50 of Eudragit® L30D55: Eudragit® FS30D was applied with a thickness of 14.8 to 16.0 mg/cm^2 and a weight of approximately 76 mg to each capsule. Placebo capsules were generated using similarly coated empty capsules.
# A total of four cohorts were dosed with either 1 mg, 3 mg, 10, mg or 30 mg of the IL-10 delivery construct, randomized 3:1 to receive the IL-10 delivery construct or a placebo administered once daily for fourteen days. The goal of the trial was to assess the safety of the IL-10 delivery construct and any change in UC disease activity, through endoscopy, histology, biomarkers, and serum samples. Stool samples and colonic biopsies were obtained at baseline and day 14 of treatment to assess fecal calprotectin as well as histology based upon blinded central read of the Geboes scoring system. Fecal calprotectin is an objective marker of clinical response in UC studies and the Geboes scoring system is a measure of histological response. The Geboes scoring system of this example used a 0-22 point histologic scoring system in which higher scores represent more severe disease.
# STAT3 = experiment: pSTAT3 induction and hIL-10 in intestinal tissue 40 min after oral gavage, immunofluorescence and image analysis; assay type: in vivo, rat; settings: 40 min post oral gavage
# Protocol: This observation is consistent with findings in mice that intestinal epithelial cells can express IL-10 receptors at their apical surface under certain conditions associated with development and maintenance of barrier function. […] In order to quantify how test articles affected intestinal IL-10 signal transduction pathways, image analysis was performed: high-throughput image batches were collected, segmented by epithelial versus lamina propria localization, and then by cellular features.
# [3] = 37 C, 5 h, 0.3 mg/mL
# [4] = tested on: human peripheral blood mononuclear cells (PBMCs); experiment: LPS-induced TNFα, IL-6 and HLA-DR in PBMC monocytes, flow cytometry; settings: pre-treatment
# IL-10RA and IL-10RB = target: T1, IL-10RA and IL-10RB (Homo sapiens, UniProt Q08334+Q13651); experiment: IL-10 receptor dimerization luminescence assay in engineered U2OS cells; settings: read-out: EC50, IL-10R dimerization; 6 h
# T1 sequence (Q13651 22-578): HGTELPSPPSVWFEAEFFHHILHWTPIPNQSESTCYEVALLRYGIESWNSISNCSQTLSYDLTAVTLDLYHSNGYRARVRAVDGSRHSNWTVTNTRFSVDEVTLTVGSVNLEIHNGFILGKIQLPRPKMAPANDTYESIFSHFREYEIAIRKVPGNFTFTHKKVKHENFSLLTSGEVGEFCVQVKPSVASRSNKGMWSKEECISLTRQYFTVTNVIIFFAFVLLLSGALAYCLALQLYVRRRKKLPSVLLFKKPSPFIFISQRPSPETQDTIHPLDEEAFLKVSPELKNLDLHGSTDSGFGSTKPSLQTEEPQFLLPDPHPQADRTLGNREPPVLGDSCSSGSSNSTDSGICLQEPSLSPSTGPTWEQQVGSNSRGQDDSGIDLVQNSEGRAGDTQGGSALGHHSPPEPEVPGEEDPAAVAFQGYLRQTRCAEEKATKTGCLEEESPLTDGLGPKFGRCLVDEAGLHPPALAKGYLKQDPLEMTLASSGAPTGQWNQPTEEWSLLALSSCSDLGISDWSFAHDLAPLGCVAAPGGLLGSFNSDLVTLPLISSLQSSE
# T1 sequence (Q08334 20-325): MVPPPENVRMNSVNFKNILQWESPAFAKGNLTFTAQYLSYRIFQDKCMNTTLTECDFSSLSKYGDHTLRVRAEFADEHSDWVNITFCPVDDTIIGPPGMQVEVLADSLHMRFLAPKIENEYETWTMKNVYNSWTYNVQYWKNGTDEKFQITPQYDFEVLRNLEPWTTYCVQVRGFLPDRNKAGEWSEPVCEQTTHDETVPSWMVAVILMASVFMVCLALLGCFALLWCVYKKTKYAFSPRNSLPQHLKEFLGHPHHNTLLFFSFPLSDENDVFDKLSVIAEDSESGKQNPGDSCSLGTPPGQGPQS
# [5] = 1 mg once daily for 14 days, n = 3 UC patients
# [6] = 3 mg once daily for 14 days, n = 3 UC patients
# [7] = 10 mg once daily for 14 days, n = 3 UC patients
# [8] = 30 mg once daily for 14 days, n = 3 UC patients
molecule,measurement,setting,value
B1,plasma IL-10 delivery construct concentration relative to IL-10,[1]; 3 mg and 10 mg doses,10 fold lower
same,"systemic IFN-γ, IL-1β, IL-2, IL-8","[1]; 1, 3, 10 mg",did not lead to an increase
same,plasma IL-1Ra,"[1]; 1, 3 and 10 mg",induction of the plasma concentration of IL-1Ra was observed at all three doses
same,systemic IL-6,[1]; 3 and 10 mg groups,moderately induced
same,time of maximal plasma IL-1Ra concentration,"[1]; cynomolgus monkey, in vivo",3 to 4 h
same,time to detection of total IL-10 in plasma,"[1]; single dose 1, 3 or 10 mg pan-colonic",≤ 15 min
same,rhIL-10 levels in inflamed tissue relative to rhIL-10 alone,[2]; 159 pmoles,approximately 10 fold higher
same,uptake in normal intestinal tissues compared to rhIL-10 alone,[2]; 159 pmoles,two- to five-fold higher
same,rhIL-10 in intestinal tissue compared to rhIL-10 alone,"[2]; 159 pmoles, 10-minute exposure",substantially higher
same,rhIL-10 in serum of healthy animals,[2]; intraluminal injection,moderately high rhIL-10 detected
same,rhIL-10 in serum of inflamed animals,[2]; intraluminal injection,minimal amounts of rhIL-10 were detected
same,# of TEASs,ulcerative colitis; [5],2
same,TEASs (% pts),ulcerative colitis; [5],67%
same,placebo-adjusted mean reduction of FCP,"ulcerative colitis; 1 mg, 14 days",44%
same,# of TEASs,ulcerative colitis; [6],7
same,TEASs (% pts),ulcerative colitis; [6],67%
same,placebo-adjusted mean reduction of FCP,"ulcerative colitis; 3 mg, 14 days",27%
same,FCP activity at higher doses,ulcerative colitis; 10 mg and 30 mg,diminution of activity at higher doses
same,# of TEASs,ulcerative colitis; [7],5
same,TEASs (% pts),ulcerative colitis; [7],67%
same,Geboes score of one UC patient (22 point scale),"ulcerative colitis; 10 mg, pre-dose to 14 days",improved from a score of 15 to a score of three
same,# of TEASs,ulcerative colitis; [8],6
same,TEASs (% pts),ulcerative colitis; [8],67%
same,tolerability in patients with UC,"ulcerative colitis; 1, 3, 10, 30 mg once daily 14 days",well tolerated
same,CRP levels compared to placebo,"ulcerative colitis; 1 and 3 mgs, baseline CRP greater than 5 mg/L",greater reductions in CRP levels
same,TEAEs in the 12 active patients,ulcerative colitis; 14 days,20
same,patients with reduced Geboes scores,"ulcerative colitis; 14 days, (6/10) active patients",60%
same,# of TEASs,"ulcerative colitis; All Active, n = 12 UC patients",20
same,TEASs (% pts),"ulcerative colitis; All Active, n = 12 UC patients",67%
same,detection in systemic circulation,"ulcerative colitis; human, in vivo",not detected in systemic circulation
same,treatment emergent AEs of anemia or thrombocytopenia,"ulcerative colitis; human, in vivo",no treatment emergent AEs of anemia or thrombocytopenia were observed
same,hIL-10 and pSTAT3 in intestinal tissue,STAT3,extensive amounts of hIL-10 and a large number of cells that were positive for pSTAT3 within the lamina propria
same,solution stability after reconstitution in PBS,[3],significant degradation
same,LPS-induced secreted TNFα,[4],dose-dependent reduction
same,LPS-induced surface expression of HLA-DR,[4],dose-dependent reduction
same,EC50,IL-10RA and IL-10RB,0.971 nM
